Consider 16 molecules from patent publication US20210009685A1 (ALTEOGEN, published 2021).

Test [1] concerns the target T1, Folate receptor alpha (FOLR1) (human, UniProt P15328 25-234, limits assumed).
T1 construct: Antigen printed simply as FOLR1 for the panning, the clone ELISA and the SPR chip; also called human FOLR1; folate receptor-α
The test is described as follows: screening ELISA of panned phage library clones on FOLR1.

The target of test [2] is T2, FOLR1-Fc (UniProt P15328 25-234, limits assumed).
T2 construct: also called FOLR1 (ELISA coating); not shown: Fc part
The test is described as follows: ELISA, FOLR1-Fc coated. The method, then:
(§1) For the purpose of comparing the binding affinities of the primarily selected clones with each other, ELISA was performed at different clone concentrations in the following manner. 25 μL of FOLR1 was added to each well of a 96-well plate at a concentration of 1 μg/mL, coated on the plate at room temperature for 1 hour, and then blocked with 180 μL of 3% skim milk at room temperature for 1 hour. During blocking, samples to be used as primary antibodies were prepared. As primary antibodies, samples selected by screening were used. The samples were diluted to a concentration of 0.1 to 100 nM (0, 0.1, 0.3, 1, 3, 10, 30, and 100 nM) and cold-stored until use. After blocking, 3% skim milk was removed, and 25 μL of the primary antibody was added to each well and allowed to react at room temperature for 1 hour or more. After completion of the reaction, each well was washed three times with PBS-Tween20 (0.1%) buffer. As a secondary antibody, HA-HRP was diluted 3,000-fold with 3% skim milk, and 25 μL of the dilution was added to each well and allowed to react at room temperature for 1 hour or more. After completion of the reaction, each well was washed three times with PBS-Tween20 (0.1%), and 25 μL of substrate TMB was added to each well to confirm color development. After about 5 minutes, 25 μL of 1 M H₂SO₄ was added to each well to stop the reaction, and the absorbance at a wavelength of 450 nm was measured. From the measurement results, the EC (Effector concentration) value was calculated using the GraphPad Prism 7 program.
(§2) The measured values are obtained in different experiments for comparison with the parent antibody.
A general note: ELISA stands for enzyme-linked immunosorbent assay.

Test [3] has as its target T2, FOLR1-Fc. The experiment in a line: ELISA, FOLR1-Fc coated, antibody titrated. The procedure: as §1, §2

T2 sequence (P15328 25-234 limits assumed): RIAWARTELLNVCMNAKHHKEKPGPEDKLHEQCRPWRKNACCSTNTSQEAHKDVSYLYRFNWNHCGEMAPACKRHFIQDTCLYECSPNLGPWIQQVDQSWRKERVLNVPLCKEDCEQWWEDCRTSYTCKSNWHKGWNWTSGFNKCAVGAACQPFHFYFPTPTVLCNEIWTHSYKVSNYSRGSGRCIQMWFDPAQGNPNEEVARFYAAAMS
T1 sequence (P15328 25-234 limits assumed): as above

B1: CDR-L1 library clone C7 (Fab, V domains shown)
VH: EVQLVESGGGVVQPGRSLRLSCSASGFTFSGYGLSWVRQAPGKGLEWVAMISSGGSYTYYADSVKGRFAISRDNAKNTLFLQMDSLRPEDTGVYFCARHGDDPAWFAYWGQGTPVTVSS
VL: DIQLTQSPSSLSASVGDRVTITCSASSSLSSSYLHWYQQKPGKAPKPWIYGTSNLASGVPSRFSGSGSGTDYTFTISSLQPEDIATYYCQQWSSYPYMYTFGQGTKVEIK
notes: Fab clone from the phage library on the parent Fab template; Only the CDR-L1 is printed
With B1, in test [1], the binding result is recorded as “binds”.

B2: Modified antibody vAb3 (antibody, V domains shown)
VH: EVQLVESGGGVVQPGRSLRLSCSASGFTFSGYGLSWVRQAPGKGLEWVAMISSGGSYTYYADSVKGRFAISRDNAKNTLFLQMDSLRPEDTGVYFCARHGDDPAWFAYWGQGTPVTVSS
VL: DIQLTQSPSSLSASVGDRVTITCSASSGLSSSYLHWYQQKPGKAPKPWIYGTSNLASGVPSRFSGSGSGTDYTFTISSLQPEDIATYYCQQWSSYPYMYTFGQGTKVEIK
notes: Carries modified CDR-L1
Turning to B2, the “Relative Potency” value in the test with FOLR1-Fc [2] is 3.99 fold against parent antibody. Besides, it took 0.77 ng/mL to reach a half-maximal effect in the test with FOLR1-Fc [3] (EC50).

B3: Modified antibody vAb5 (antibody, V domains shown)
VH: EVQLVESGGGVVQPGRSLRLSCSASGFTFSGYGLSWVRQAPGKGLEWVAMISSGGSYTYYADSVKGRFAISRDNAKNTLFLQMDSLRPEDTGVYFCARHGDDVAWFAYWGQGTPVTVSS
VL: DIQLTQSPSSLSASVGDRVTITCSVSSSISSNNLHWYQQKPGKAPKPWIYGTSNLASGVPSRFSGSGSGTDYTFTISSLQPEDIATYYCQQWSSYPYMYTFGQGTKVEIK
notes: Carries modified CDR-H3
For B3, in the test with FOLR1-Fc [2], the “Relative Potency” value was 1.42 fold against parent antibody. The concentration for a half-maximal effect (EC50) (commonly the concentration that produces a half-maximal response) in the test with FOLR1-Fc [3] was 2.17 ng/mL.

B4: CDR-L1 library clone D7 (Fab, V domains shown)
VH: EVQLVESGGGVVQPGRSLRLSCSASGFTFSGYGLSWVRQAPGKGLEWVAMISSGGSYTYYADSVKGRFAISRDNAKNTLFLQMDSLRPEDTGVYFCARHGDDPAWFAYWGQGTPVTVSS
VL: DIQLTQSPSSLSASVGDRVTITCRASSGLSSNNLHWYQQKPGKAPKPWIYGTSNLASGVPSRFSGSGSGTDYTFTISSLQPEDIATYYCQQWSSYPYMYTFGQGTKVEIK
notes: as for B1
Consider B4, for which the binding result in test [1] is listed as “binds”.

B5: Modified antibody vAb4 (antibody, V domains shown)
VH: EVQLVESGGGVVQPGRSLRLSCSASGFTFSGYGLSWVRQAPGKGLEWVAMISSGGSYTYYADSVKGRFAISRDNAKNTLFLQMDSLRPEDTGVYFCARHGDDPAWFAYWGQGTPVTVSS
VL: DIQLTQSPSSLSASVGDRVTITCSVSSSISSNNLHWYQQKPGKAPKPWIYGTSSRASGVPSRFSGSGSGTDYTFTISSLQPEDIATYYCQQWSSYPYMYTFGQGTKVEIK
notes: Carries modified CDR-L2
With B5, the “Relative Potency” value in the test with FOLR1-Fc [2] is 1.94 fold against parent antibody. The molecule further gave an EC50 in the test with FOLR1-Fc [3] of 1.59 ng/mL.

B6: CDR-L2 library clones E9, G6 (Fab, V domains shown)
VH: EVQLVESGGGVVQPGRSLRLSCSASGFTFSGYGLSWVRQAPGKGLEWVAMISSGGSYTYYADSVKGRFAISRDNAKNTLFLQMDSLRPEDTGVYFCARHGDDPAWFAYWGQGTPVTVSS
VL: DIQLTQSPSSLSASVGDRVTITCSVSSSISSNNLHWYQQKPGKAPKPWIYGASSLATGVPSRFSGSGSGTDYTFTISSLQPEDIATYYCQQWSSYPYMYTFGQGTKVEIK
notes: Fab clones from the phage library on the parent Fab template; Only the CDR-L2 is printed
On to B6, for which the binding result in test [1] is given as “binds”.

B7: CDR-L1 library clone H1 (Fab, V domains shown)
VH: EVQLVESGGGVVQPGRSLRLSCSASGFTFSGYGLSWVRQAPGKGLEWVAMISSGGSYTYYADSVKGRFAISRDNAKNTLFLQMDSLRPEDTGVYFCARHGDDPAWFAYWGQGTPVTVSS
VL: DIQLTQSPSSLSASVGDRVTITCSASSSISSSYLHWYQQKPGKAPKPWIYGTSNLASGVPSRFSGSGSGTDYTFTISSLQPEDIATYYCQQWSSYPYMYTFGQGTKVEIK
notes: as for B1
On to B7, for which, in test [1], the binding result is given as “binds”.

B8: CDR-L1 library clone D5 (Fab, V domains shown)
VH: EVQLVESGGGVVQPGRSLRLSCSASGFTFSGYGLSWVRQAPGKGLEWVAMISSGGSYTYYADSVKGRFAISRDNAKNTLFLQMDSLRPEDTGVYFCARHGDDPAWFAYWGQGTPVTVSS
VL: DIQLTQSPSSLSASVGDRVTITCRVSSGISSNNLHWYQQKPGKAPKPWIYGTSNLASGVPSRFSGSGSGTDYTFTISSLQPEDIATYYCQQWSSYPYMYTFGQGTKVEIK
notes: as for B1
For the molecule B8, the binding result in test [1] was “binds”.

B9: CDR-L1 library clone H7 (Fab, V domains shown)
VH: EVQLVESGGGVVQPGRSLRLSCSASGFTFSGYGLSWVRQAPGKGLEWVAMISSGGSYTYYADSVKGRFAISRDNAKNTLFLQMDSLRPEDTGVYFCARHGDDPAWFAYWGQGTPVTVSS
VL: DIQLTQSPSSLSASVGDRVTITCSVSSSLSSSNLHWYQQKPGKAPKPWIYGTSNLASGVPSRFSGSGSGTDYTFTISSLQPEDIATYYCQQWSSYPYMYTFGQGTKVEIK
notes: as for B1
In the case of B9, the binding result in test [1] was “binds”.

B10: CDR-L2 library clone G3 (Fab, V domains shown)
VH: EVQLVESGGGVVQPGRSLRLSCSASGFTFSGYGLSWVRQAPGKGLEWVAMISSGGSYTYYADSVKGRFAISRDNAKNTLFLQMDSLRPEDTGVYFCARHGDDPAWFAYWGQGTPVTVSS
VL: DIQLTQSPSSLSASVGDRVTITCSVSSSISSNNLHWYQQKPGKAPKPWIYATSNLASGVPSRFSGSGSGTDYTFTISSLQPEDIATYYCQQWSSYPYMYTFGQGTKVEIK
notes: Fab clone from the phage library on the parent Fab template; Only the CDR-L2 is printed
Regarding B10, in test [1], the binding result is on record as “binds”.

B11: CDR-L2 library clone C3 (Fab, V domains shown)
VH: EVQLVESGGGVVQPGRSLRLSCSASGFTFSGYGLSWVRQAPGKGLEWVAMISSGGSYTYYADSVKGRFAISRDNAKNTLFLQMDSLRPEDTGVYFCARHGDDPAWFAYWGQGTPVTVSS
VL: DIQLTQSPSSLSASVGDRVTITCSVSSSISSNNLHWYQQKPGKAPKPWIYATSNRESGVPSRFSGSGSGTDYTFTISSLQPEDIATYYCQQWSSYPYMYTFGQGTKVEIK
notes: as for B10
On to B11, for which the binding result in test [1] is “binds”.

B12: CDR-L1 library clone F3 (Fab, V domains shown)
VH: EVQLVESGGGVVQPGRSLRLSCSASGFTFSGYGLSWVRQAPGKGLEWVAMISSGGSYTYYADSVKGRFAISRDNAKNTLFLQMDSLRPEDTGVYFCARHGDDPAWFAYWGQGTPVTVSS
VL: DIQLTQSPSSLSASVGDRVTITCRASSGVSSNNLHWYQQKPGKAPKPWIYGTSNLASGVPSRFSGSGSGTDYTFTISSLQPEDIATYYCQQWSSYPYMYTFGQGTKVEIK
notes: as for B1
Take B12: in test [1], the binding result is “binds”.

B13: CDR-L2 library clone C10 (Fab, V domains shown)
VH: EVQLVESGGGVVQPGRSLRLSCSASGFTFSGYGLSWVRQAPGKGLEWVAMISSGGSYTYYADSVKGRFAISRDNAKNTLFLQMDSLRPEDTGVYFCARHGDDPAWFAYWGQGTPVTVSS
VL: DIQLTQSPSSLSASVGDRVTITCSVSSSISSNNLHWYQQKPGKAPKPWIYATSSLATGVPSRFSGSGSGTDYTFTISSLQPEDIATYYCQQWSSYPYMYTFGQGTKVEIK
notes: as for B10
With B13, in test [1], the binding result is “binds”.

B14: CDR-L2 library clone B1 (Fab, V domains shown)
VH: EVQLVESGGGVVQPGRSLRLSCSASGFTFSGYGLSWVRQAPGKGLEWVAMISSGGSYTYYADSVKGRFAISRDNAKNTLFLQMDSLRPEDTGVYFCARHGDDPAWFAYWGQGTPVTVSS
VL: DIQLTQSPSSLSASVGDRVTITCSVSSSISSNNLHWYQQKPGKAPKPWIYATSSRATGVPSRFSGSGSGTDYTFTISSLQPEDIATYYCQQWSSYPYMYTFGQGTKVEIK
notes: as for B10
For B14, the binding result in test [1] is “binds”.

B15: CDR-L2 library clone H2 (Fab, V domains shown)
VH: EVQLVESGGGVVQPGRSLRLSCSASGFTFSGYGLSWVRQAPGKGLEWVAMISSGGSYTYYADSVKGRFAISRDNAKNTLFLQMDSLRPEDTGVYFCARHGDDPAWFAYWGQGTPVTVSS
VL: DIQLTQSPSSLSASVGDRVTITCSVSSSISSNNLHWYQQKPGKAPKPWIYTASSRASGVPSRFSGSGSGTDYTFTISSLQPEDIATYYCQQWSSYPYMYTFGQGTKVEIK
notes: as for B10
In the case of B15, the binding result in test [1] is recorded as “binds”.

B16: Modified antibody vAb2 (antibody, V domains shown)
VH: EVQLVESGGGVVQPGRSLRLSCSASGFTFSGYGLSWVRQAPGKGLEWVAMISSGGSYTYYADSVKGRFAISRDNAKNTLFLQMDSLRPEDTGVYFCARHGDDPAWFAYWGQGTPVTVSS
VL: DIQLTQSPSSLSASVGDRVTITCSASSGLSSSYLHWYQQKPGKAPKPWIYGTSSRASGVPSRFSGSGSGTDYTFTISSLQPEDIATYYCQQWSSYPYMYTFGQGTKVEIK
notes: Carries modified CDR-L1 and CDR-L2
Turning to B16, the “Relative Potency” value with FOLR1-Fc [2] was 3.04 fold against parent antibody. The EC50 in the test with FOLR1-Fc [3] was 3.94 ng/mL.
